Assay results as given in US20210388087A1 (Chugai, published 2021).
Positions count from the first letter of the chain named. Names and notes keep the numbering of the source.

B1: H183/L072 VH A56G (antibody, name in Kabat numbering, V domains shown)
VH: QVQLVESGGGLVQPGRSLRLSCAASGFTFSNAWMHWVRQAPGKGLEWVAQIKDKGNAYGAYYAPSVKGRFTISRDDSKNSIYLQMNSLKTEDTAVYYCHYVHYASASTVLPAFGVDAWGQGTTVTVSS
VL: DIVMTQSPLSLPVTPGEPASISCQASQELVHMNRNTYLHWYQQKPGQAPRLLIYKVSNRFPGVPDRFSGSGSGTDFTLKISRVEAEDVGVYYCAQGTSVPFTFGQGTKLEIK
B2: H183/L072 VH A57I (antibody, name in Kabat numbering, V domains shown)
VH: B1 VH with G59A, A60I
VL: B1 VL
B3: H183/L072 VH A57M (antibody, name in Kabat numbering, V domains shown)
VH: B1 VH with G59A, A60M
VL: B1 VL
B4: H183/L072 VH A57S (antibody, name in Kabat numbering, V domains shown)
VH: B1 VH with G59A, A60S
VL: B1 VL
B5: H183/L072 VH A57V (antibody, name in Kabat numbering, V domains shown)
VH: B1 VH with G59A, A60V
VL: B1 VL
B6: H183/L072 VH A56H (antibody, name in Kabat numbering, V domains shown)
VH: B1 VH with G59H
VL: B1 VL
B7: H183/L072 VH A57F (antibody, name in Kabat numbering, V domains shown)
VH: B1 VH with G59A, A60F
VL: B1 VL
B8: H183/L072 VH A57N (antibody, name in Kabat numbering, V domains shown)
VH: B1 VH with G59A, A60N
VL: B1 VL
B9: H183/L072 VH A60L (antibody, name in Kabat numbering, V domains shown)
VH: B1 VH with G59A, A63L
VL: B1 VL
B10: H183/L072 VH A57G (antibody, name in Kabat numbering, V domains shown)
VH: B1 VH with G59A, A60G
VL: B1 VL
B11: H183/L072 VH A56I (antibody, name in Kabat numbering, V domains shown)
VH: B1 VH with G59I
VL: B1 VL
B12: H183/L072 VH A57T (antibody, name in Kabat numbering, V domains shown)
VH: B1 VH with G59A, A60T
VL: B1 VL
B13: H183/L072 VH A57E (antibody, name in Kabat numbering, V domains shown)
VH: B1 VH with G59A, A60E
VL: B1 VL
B14: H183/L072 VH A56K (antibody, name in Kabat numbering, V domains shown)
VH: B1 VH with G59K
VL: B1 VL
B15: H183/L072 VH A60Q (antibody, name in Kabat numbering, V domains shown)
VH: B1 VH with G59A, A63Q
VL: B1 VL
B16: H183/L072 VH A60D (antibody, name in Kabat numbering, V domains shown)
VH: B1 VH with G59A, A63D
VL: B1 VL
B17: H183/L072 VH A57P (antibody, name in Kabat numbering, V domains shown)
VH: B1 VH with G59A, A60P
VL: B1 VL
B18: H183/L072 VH A60H (antibody, name in Kabat numbering, V domains shown)
VH: B1 VH with G59A, A63H
VL: B1 VL
B19: H183/L072 VH A60P (antibody, name in Kabat numbering, V domains shown)
VH: B1 VH with G59A, A63P
VL: B1 VL
B20: H183/L072 VH A60T (antibody, name in Kabat numbering, V domains shown)
VH: B1 VH with G59A, A63T
VL: B1 VL
B21: H183/L072 VH A56S (antibody, name in Kabat numbering, V domains shown)
VH: B1 VH with G59S
VL: B1 VL
B22: H183/L072 VH A60K (antibody, name in Kabat numbering, V domains shown)
VH: B1 VH with G59A, A63K
VL: B1 VL
B23: H183/L072 VH A56V (antibody, name in Kabat numbering, V domains shown)
VH: B1 VH with G59V
VL: B1 VL
B24: H183/L072 VH A60F (antibody, name in Kabat numbering, V domains shown)
VH: B1 VH with G59A, A63F
VL: B1 VL
B25: H183/L072 VH A56W (antibody, name in Kabat numbering, V domains shown)
VH: B1 VH with G59W
VL: B1 VL
B26: H183/L072 VH A57D (antibody, name in Kabat numbering, V domains shown)
VH: B1 VH with G59A, A60D
VL: B1 VL
B27: H183/L072 VH A56L (antibody, name in Kabat numbering, V domains shown)
VH: B1 VH with G59L
VL: B1 VL
B28: H183/L072 VH A60M (antibody, name in Kabat numbering, V domains shown)
VH: B1 VH with G59A, A63M
VL: B1 VL
B29: H183/L072 VH A56P (antibody, name in Kabat numbering, V domains shown)
VH: B1 VH with G59P
VL: B1 VL
B30: H183/L072 VH A57H (antibody, name in Kabat numbering, V domains shown)
VH: B1 VH with G59A, A60H
VL: B1 VL
B31: H183/L072 VH A56Y (antibody, name in Kabat numbering, V domains shown)
VH: B1 VH with G59Y
VL: B1 VL
B32: H183/L072 VH A57Q (antibody, name in Kabat numbering, V domains shown)
VH: B1 VH with G59A, A60Q
VL: B1 VL
B33: H183/L072 VH A56Q (antibody, name in Kabat numbering, V domains shown)
VH: B1 VH with G59Q
VL: B1 VL
B34: H183/L072 VH A60E (antibody, name in Kabat numbering, V domains shown)
VH: B1 VH with G59A, A63E
VL: B1 VL
B35: H183/L072 VH A60V (antibody, name in Kabat numbering, V domains shown)
VH: B1 VH with G59A, A63V
VL: B1 VL
B36: H183/L072 VH A57R (antibody, name in Kabat numbering, V domains shown)
VH: B1 VH with G59A, A60R
VL: B1 VL
B37: H183/L072 VH A56N (antibody, name in Kabat numbering, V domains shown)
VH: B1 VH with G59N
VL: B1 VL
B38: H183/L072 VH A60I (antibody, name in Kabat numbering, V domains shown)
VH: B1 VH with G59A, A63I
VL: B1 VL
B39: H183/L072 VH A56M (antibody, name in Kabat numbering, V domains shown)
VH: B1 VH with G59M
VL: B1 VL
B40: H183/L072 VH A60S (antibody, name in Kabat numbering, V domains shown)
VH: B1 VH with G59A, A63S
VL: B1 VL
B41: H183/L072 VH A60G (antibody, name in Kabat numbering, V domains shown)
VH: B1 VH with G59A, A63G
VL: B1 VL
B42: H183/L072 VH A56T (antibody, name in Kabat numbering, V domains shown)
VH: B1 VH with G59T
VL: B1 VL
B43: H183/L072 VH A56R (antibody, name in Kabat numbering, V domains shown)
VH: B1 VH with G59R
VL: B1 VL
B44: H183/L072 VH A60N (antibody, name in Kabat numbering, V domains shown)
VH: B1 VH with G59A, A63N
VL: B1 VL
B45: H183/L072 VH A57Y (antibody, name in Kabat numbering, V domains shown)
VH: B1 VH with G59A, A60Y
VL: B1 VL
B46: H183/L072 VH A60R (antibody, name in Kabat numbering, V domains shown)
VH: B1 VH with G59A, A63R
VL: B1 VL
B47: H183/L072 VH A57K (antibody, name in Kabat numbering, V domains shown)
VH: B1 VH with G59A, A60K
VL: B1 VL

Molecular target: T1, Human CD137 ECD (human)
T1 construct: also called 4-1BB
T1 sequence (chain, as listed by the source limits assumed): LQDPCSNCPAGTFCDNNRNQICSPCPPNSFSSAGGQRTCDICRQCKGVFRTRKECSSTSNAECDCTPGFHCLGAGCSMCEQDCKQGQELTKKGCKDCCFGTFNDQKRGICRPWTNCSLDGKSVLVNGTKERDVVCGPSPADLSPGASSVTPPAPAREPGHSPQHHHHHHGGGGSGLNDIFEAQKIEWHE
Assay: single mutant vs template dBBDu183H

Row | fold change of affinity | Binder
1 | 0.6 fold | B1
2 | 0.1 fold | B2
3 | 0.7 fold | B3
4 | 0.8 fold | B4
5 | 0.5 fold | B5
6 | 0.6 fold | B6
7 | 0.1 fold | B7
8 | 0.3 fold | B8
9 | 1.1 fold | B9
10 | 0.9 fold | B10
11 | 0.2 fold | B11
12 | 0.6 fold | B12
13 | 0.9 fold | B13
14 | 0.8 fold | B14
15 | 1.1 fold | B15
16 | 0.6 fold | B16
17 | 1 fold | B17
18 | 1.3 fold | B18
19 | 0.1 fold | B19
20 | 1.3 fold | B20
21 | 0.7 fold | B21
22 | 1.1 fold | B22
23 | 0.2 fold | B23
24 | 1.2 fold | B24

Row | fold change of affinity | Binder
25 | 0.3 fold | B25
26 | 1.2 fold | B26
27 | 0.5 fold | B27
28 | 1 fold | B28
29 | 0.2 fold | B29
30 | 0.5 fold | B30
31 | 0.3 fold | B31
32 | 0.9 fold | B32
33 | 0.8 fold | B33
34 | 0.8 fold | B34
35 | 0.9 fold | B35
36 | 0.5 fold | B36
37 | 0.7 fold | B37
38 | 0.7 fold | B38
39 | 0.7 fold | B39
40 | 1 fold | B40
41 | 0.8 fold | B41
42 | 0.4 fold | B42
43 | 0.8 fold | B43
44 | 1.3 fold | B44
45 | 0 fold | B45
46 | 1.2 fold | B46
47 | 0.9 fold | B47
